In patent US20060251650A1 (CHILDREN S MEDICAL CENTER, published 2006):
Each block holds one binder with its values, some of them ahead of it.

Experiments:
[1] = target: T1, Human VEGF165R/NP-1 (neuropilin-1) (human, UniProt O14786 22-923); assay: cell-based or functional assay
[2] = target: T2, Rat neuropilin-1 on AT3.1 Dunning rat prostate carcinoma cells (rat, UniProt Q9QWJ9 22-922); assay: 125I-VEGF165 cross-linking to AT3.1 rat prostate carcinoma cells
T2 construct: whole, on cells; also called VEGF165R/NP-1 (AT3.1 cells)

[3] = target: T1, Human VEGF165R/NP-1 (neuropilin-1); assay: Scatchard analysis (LIGAND program) of 125I-VEGF165 binding to PAE/NP-1 cells
Description: FIGS. 7A and 7B show a Scatchard Analysis of VEGF₁₆₅ binding to VEGF₁₆₅R/NP-1. […] Increasing amounts of ¹²⁵I-VEGF₁₆₅ (0.1-50 ng ml) were added to subconfluent cultures of PAE cells transfected with human VEGF₁₆₅R/NP-1 cDNA (PAE/NP-1 cells) in 48 well dishes. Non-specific binding was determined by competition with a 200-fold excess of unlabeled VEGF₁₆₅. After binding, the cells were washed, lysed and the cell-associated radioactivity was determined using a counter.
The specific activity ranged from 40,000-100,000 cpm/ng protein. […] VEGF binding was quantitated by measuring the cell-associated radioactivity in a y-counter (Beckman, Gamma 5500). The counts represent the average of three wells. All experiments were repeated at least three times and similar results where obtained.

[4] = target: T3, Human NP-2 (neuropilin-2) (human, UniProt O60462 21-931); assay: expression cloning: COS-7 cells transfected with single cDNA clones, screened for 125I-VEGF165 binding; seven positive clones, of which this one is NP-2
T3 construct: The open reading frame has 931 amino acids
T3 sequence: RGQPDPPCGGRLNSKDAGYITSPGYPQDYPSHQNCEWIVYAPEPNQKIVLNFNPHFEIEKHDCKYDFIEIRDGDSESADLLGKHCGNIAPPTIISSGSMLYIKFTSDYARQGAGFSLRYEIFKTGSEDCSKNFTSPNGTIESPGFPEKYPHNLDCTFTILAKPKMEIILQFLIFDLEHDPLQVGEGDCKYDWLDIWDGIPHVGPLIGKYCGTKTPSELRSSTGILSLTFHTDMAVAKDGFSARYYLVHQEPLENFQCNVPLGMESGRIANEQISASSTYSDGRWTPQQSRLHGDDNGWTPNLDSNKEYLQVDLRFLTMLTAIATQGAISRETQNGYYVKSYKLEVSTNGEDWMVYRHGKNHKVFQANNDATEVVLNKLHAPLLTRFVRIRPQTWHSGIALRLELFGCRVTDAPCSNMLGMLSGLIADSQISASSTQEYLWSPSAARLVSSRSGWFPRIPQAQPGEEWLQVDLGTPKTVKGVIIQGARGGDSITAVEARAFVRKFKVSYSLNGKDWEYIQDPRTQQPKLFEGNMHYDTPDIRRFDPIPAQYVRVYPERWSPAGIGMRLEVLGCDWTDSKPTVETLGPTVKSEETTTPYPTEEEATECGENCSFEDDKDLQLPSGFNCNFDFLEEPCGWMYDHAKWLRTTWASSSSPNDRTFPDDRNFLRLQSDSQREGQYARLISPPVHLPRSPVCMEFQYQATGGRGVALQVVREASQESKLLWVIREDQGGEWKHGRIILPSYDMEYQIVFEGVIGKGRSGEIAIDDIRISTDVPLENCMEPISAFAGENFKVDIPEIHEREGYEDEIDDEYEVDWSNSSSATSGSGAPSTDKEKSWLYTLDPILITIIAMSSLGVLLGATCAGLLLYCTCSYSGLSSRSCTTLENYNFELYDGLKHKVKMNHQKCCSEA
Description: Seven positive DNA pools were identified and DNA from one of the positive pools was used to transform E. coli. The E. coli were sub-divided into 50 separate pools and plated onto 50 LB ampicillin dishes, with each pool representing approximately 100 clones. DNA made from these pools was transfected into COS-7 cells which were screened for ¹²⁵I-VEGF₁₆₅ binding as described above. […] Each pool was plated onto separate LB ampicillin dishes and DNA was prepared from 96 individual colonies and screened in a 96-well two dimensional grid for ¹²⁵I-VEGF₁₆₅ binding to transfected COS-7 cells as described above. […] The seven positive plasmid clones where amplified and their DNA was analyzed by restriction enzyme digestion. […] One clone from each group was submitted for automated DNA sequencing.
E. coli transformed with the plasmid library were divided into pools. The DNA prepared from each pool were transfected into COS-7 cells in separate wells and individual cells were screened for the ability to bind ¹²⁵I-VEGF₁₆₅ as detected by autoradiography of monolayers overlayed with photographic emulsion (FIG. 2A).

KDR = target: T4, KDR (UniProt P35968 20-1356, limits assumed); assay: 125I-collapsin-1 binding to PAE/KDR cells
T4 construct: whole, on cells; also called KDR/Flk-1
T4 sequence (P35968 20-1356 limits assumed): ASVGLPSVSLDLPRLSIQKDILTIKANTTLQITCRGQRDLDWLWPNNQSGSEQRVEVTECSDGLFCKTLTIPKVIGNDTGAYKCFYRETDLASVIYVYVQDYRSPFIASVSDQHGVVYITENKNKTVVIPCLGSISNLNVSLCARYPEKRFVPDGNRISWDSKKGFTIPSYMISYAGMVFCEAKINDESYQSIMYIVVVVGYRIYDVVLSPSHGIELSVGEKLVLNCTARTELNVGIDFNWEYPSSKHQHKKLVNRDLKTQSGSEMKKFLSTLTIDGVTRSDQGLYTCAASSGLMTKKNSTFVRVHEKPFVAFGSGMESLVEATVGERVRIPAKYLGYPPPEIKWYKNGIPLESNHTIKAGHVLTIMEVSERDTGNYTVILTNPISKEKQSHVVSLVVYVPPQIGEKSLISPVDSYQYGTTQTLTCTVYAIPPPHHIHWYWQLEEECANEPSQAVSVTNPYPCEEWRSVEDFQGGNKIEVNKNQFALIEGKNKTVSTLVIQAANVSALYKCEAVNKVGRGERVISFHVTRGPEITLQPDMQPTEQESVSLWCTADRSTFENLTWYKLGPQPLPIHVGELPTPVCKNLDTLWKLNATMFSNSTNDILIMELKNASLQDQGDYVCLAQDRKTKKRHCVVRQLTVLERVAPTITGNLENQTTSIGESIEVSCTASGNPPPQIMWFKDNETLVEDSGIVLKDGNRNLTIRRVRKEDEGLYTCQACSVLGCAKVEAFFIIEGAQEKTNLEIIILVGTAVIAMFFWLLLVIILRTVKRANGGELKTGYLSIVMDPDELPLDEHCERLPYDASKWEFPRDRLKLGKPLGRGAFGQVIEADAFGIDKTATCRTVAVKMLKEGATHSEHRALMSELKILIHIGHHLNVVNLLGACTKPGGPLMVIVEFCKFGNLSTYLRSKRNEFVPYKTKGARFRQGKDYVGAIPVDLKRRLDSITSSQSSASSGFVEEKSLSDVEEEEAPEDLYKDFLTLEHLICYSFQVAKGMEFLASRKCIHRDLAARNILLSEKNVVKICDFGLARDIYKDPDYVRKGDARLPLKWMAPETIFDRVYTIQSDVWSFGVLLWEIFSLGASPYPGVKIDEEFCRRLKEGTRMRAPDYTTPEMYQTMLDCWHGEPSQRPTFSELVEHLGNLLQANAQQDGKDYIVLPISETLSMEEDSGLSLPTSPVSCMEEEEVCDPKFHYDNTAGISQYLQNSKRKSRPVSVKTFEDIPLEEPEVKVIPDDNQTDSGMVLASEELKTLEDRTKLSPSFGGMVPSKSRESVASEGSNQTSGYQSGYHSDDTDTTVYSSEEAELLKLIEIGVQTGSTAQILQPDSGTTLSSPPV

[5] = target: T1, Human VEGF165R/NP-1 (neuropilin-1); assay: 125I-VEGF121 binding and chemical cross-linking to PAE/NP-1 cells, SDS-PAGE and autoradiography, 1 µg/ml heparin
Description: The cells were lysed and proteins were resolved by 6% SDS-PAGE.

stimulation of 231 breast carcinoma cell motility, Boyden chamber, VEGF165 50 ng/ml [1]: 2 fold
binding result [2]: binds
Kd [3]: ~0.32 nM
binding result [4]: binds
B1: Human recombinant VEGF165 (ligand, UniProt P15692-4 27-191, looked up)
chain: APMAEGGGQNHHEVVKFMDVYQRSYCHPIETLVDIFQEYPDEIEYIFKPSCVPLMRCGGCCNDEGLECVPTEESNITMQIMRIKPHQGQHIGEMSFLQHNKCECRPKKDRARQENPCGPCSERRKHLFVQDPQTCKCSCKNTDSRCKARQLELNERTCRCDKPRR
modifications: radio-iodinated (125I) using IODO-BEADS in the binding and cross-linking experiments
notes: mature

binding result (KDR): no binding
B2: Recombinant chick collapsin-1 (semaphorin III) (ligand, UniProt Q90607 23-772, looked up)
chain: QHVKNNVPRLKLSYKEMLESNNIVNFNGLANSSSYHTFLLDEERSRLYVGAKDHIFSFNLVNIKEYQKIVWPVSHSRRDECKWAGKDILRECANFIKVLKTYNQTHLYACGTGAFHPMCTYIEVGSHPEDNIFRMEDSHFENGRGKSPYDPKLLTASLLVDGELYSGTAADFMGRDFAIFRTLGHHHPIRTEQHDSRWLNDPRFISAHLIPESDNPEDDKIYFFFRENAIDGEHTGKATHARIGQICKNDFGGHRSLVNKWTTFLKARLICSVPGPNGIDTHFDELQDVFLMNSKDPKNPIVYGVFTTSSNIFKGSAVCMYSMTDVRRVFLGPYAHRDGPNYQWVPYQGRVPYPRPGTCPSKTFGGFDSTKDLPDEVITFARSHPAMYNPVFPINSRPIMIKTDVDYQFTQIVVDRVDAEDGQYDVMFIGTDIGTVLKVVSIPKETWHELEEVLLEEMTVFREPTVISAMKISTKQQQLYIGSATGVSQLPLHRCDVYGKACAECCLARDPYCAWDGSSCSRYFPTAKRRTRRQDIRNGDPLTHCSDLQHHDNPSGQTLEEKIIYGVENSSTFLECSPKSQRAIVYWQFQKQNDDHKVEIKVDDRMIRTEQGLLLRSLQRRDSGIYFCHAVEHGFIQTLLKVTLEVIDTDHLEELLHKEEDADASKTKDATNSMTPSQKIWYRDFMQLINHPNLNTMDEFCEQVWKRDRKQRRQRPANAQVNTNKWKHLQENKKGRNRRTHEFERAPRSV
modifications: 125I-labelled in the binding studies

binding result [5]: no binding (tested: 10 ng/ml)
B3: Human recombinant VEGF121 (ligand, UniProt P15692-9 27-147, looked up)
chain: APMAEGGGQNHHEVVKFMDVYQRSYCHPIETLVDIFQEYPDEIEYIFKPSCVPLMRCGGCCNDEGLECVPTEESNITMQIMRIKPHQGQHIGEMSFLQHNKCECRPKKDRARQEKCDKPRR
modifications: radio-iodinated (125I) using IODO-BEADS in the cross-linking experiments
notes: mature
